Among the data in the Human Domainome abundance scans (Beltran et al. 2025) are abundance fitness values, retold here.

± gives the uncertainty stated by the source.

The chains are these.
B1: POU domain, class 4, transcription factor 2, residues 256 to 327; numbered along this chain, Q12837 (parent)
chain: RDLEAFAERFKQRRIKLGVTQADVGSALANLKIPGVGSLSQSTICRFESLTLSHNNMIALKPILQAWLEEAE

This data set covers variants of B1. As to the kind of experiment: abundance fitness (aPCA) (normalised: wild type 0, dead -1); higher = more abundant; growth selection in yeast, the domain comes from the species named. As to conditions: Homo sapiens.
Consider RDLEAFAERFKQRRIGLGVTQADVGSALANLKIPGVGSLSQSTICRFESLTLSHNNMIALKPILQAWLEEAE, for which the abundance fitness was -0.026 ± 0.086.

Turning to RDLEAFAERFKQRRIFLGVTQADVGSALANLKIPGVGSLSQSTICRFESLTLSHNNMIALKPILQAWLEEAE, the abundance fitness was -0.066 ± 0.11.

For RDLEAFAERFKQRRICLGVTQADVGSALANLKIPGVGSLSQSTICRFESLTLSHNNMIALKPILQAWLEEAE, the abundance fitness was -0.137 ± 0.1.

For RDLEAFAERFKQRRIHLGVTQADVGSALANLKIPGVGSLSQSTICRFESLTLSHNNMIALKPILQAWLEEAE, the abundance fitness amounted to 0.028 ± 0.11.

Take RDLEAFAERFKQRRIILGVTQADVGSALANLKIPGVGSLSQSTICRFESLTLSHNNMIALKPILQAWLEEAE: the abundance fitness is -0.016 ± 0.1.

RDLEAFAERFKQERIKLGVTQADVGSALANLKIPGVGSLSQSTICRFESLTLSHNNMIALKPILQAWLEEAE: the abundance fitness was -0.03 ± 0.09.

Regarding RDLEAFAERFKQWRIKLGVTQADVGSALANLKIPGVGSLSQSTICRFESLTLSHNNMIALKPILQAWLEEAE, the abundance fitness was -0.338 ± 0.099.

Take RDLEAFAERFKQYRIKLGVTQADVGSALANLKIPGVGSLSQSTICRFESLTLSHNNMIALKPILQAWLEEAE: the abundance fitness was -0.761 ± 0.31.

Turning to RDLEAFAERFKQGRIKLGVTQADVGSALANLKIPGVGSLSQSTICRFESLTLSHNNMIALKPILQAWLEEAE, the abundance fitness was -0.067 ± 0.069.

For RDLEAFAERFKQHRIKLGVTQADVGSALANLKIPGVGSLSQSTICRFESLTLSHNNMIALKPILQAWLEEAE, the abundance fitness is -0.115 ± 0.082.

In the case of RDLEAFAERFKQVRIKLGVTQADVGSALANLKIPGVGSLSQSTICRFESLTLSHNNMIALKPILQAWLEEAE, the abundance fitness came out at 0.067 ± 0.057.

As to RDLEAFAERFKQCRIKLGVTQADVGSALANLKIPGVGSLSQSTICRFESLTLSHNNMIALKPILQAWLEEAE, the abundance fitness is -0.476 ± 0.18.

Consider RDLEAFAERFKQSRIKLGVTQADVGSALANLKIPGVGSLSQSTICRFESLTLSHNNMIALKPILQAWLEEAE, for which the abundance fitness is -0.014 ± 0.054.

Consider RDLEAFAERFKQDRIKLGVTQADVGSALANLKIPGVGSLSQSTICRFESLTLSHNNMIALKPILQAWLEEAE, for which the abundance fitness is -0.462 ± 0.34.

As to RDLEAFAERFKQPRIKLGVTQADVGSALANLKIPGVGSLSQSTICRFESLTLSHNNMIALKPILQAWLEEAE, the abundance fitness was -1.02 ± 0.14.

With RDLEAFAERFKQQRIKLGVTQADVGSALANLKIPGVGSLSQSTICRFESLTLSHNNMIALKPILQAWLEEAE, the abundance fitness is -0.113 ± 0.087.

With RDLEAFAERFKQARIKLGVTQADVGSALANLKIPGVGSLSQSTICRFESLTLSHNNMIALKPILQAWLEEAE, the abundance fitness was 0.066 ± 0.05.

With RDLEAFAERFKQNRIKLGVTQADVGSALANLKIPGVGSLSQSTICRFESLTLSHNNMIALKPILQAWLEEAE, the abundance fitness is -0.401 ± 0.14.

Regarding RDLEAFAERFKQFRIKLGVTQADVGSALANLKIPGVGSLSQSTICRFESLTLSHNNMIALKPILQAWLEEAE, the abundance fitness was -0.375 ± 0.13.

For RDLEAFAERFKQTRIKLGVTQADVGSALANLKIPGVGSLSQSTICRFESLTLSHNNMIALKPILQAWLEEAE, the abundance fitness was -0.165 ± 0.086.

RDLEAFAERFKQLRIKLGVTQADVGSALANLKIPGVGSLSQSTICRFESLTLSHNNMIALKPILQAWLEEAE: the abundance fitness was -0.223 ± 0.057.

Regarding RDLEAFAERFKQRRFKLGVTQADVGSALANLKIPGVGSLSQSTICRFESLTLSHNNMIALKPILQAWLEEAE, the abundance fitness was -0.36 ± 0.11.

With RDLEAFAERFKQRRNKLGVTQADVGSALANLKIPGVGSLSQSTICRFESLTLSHNNMIALKPILQAWLEEAE, the abundance fitness was -0.521 ± 0.14.

In the case of RDLEAFAERFKQRREKLGVTQADVGSALANLKIPGVGSLSQSTICRFESLTLSHNNMIALKPILQAWLEEAE, the abundance fitness was -0.226 ± 0.11.

As to RDLEAFAERFKQRRPKLGVTQADVGSALANLKIPGVGSLSQSTICRFESLTLSHNNMIALKPILQAWLEEAE, the abundance fitness is -0.569 ± 0.087.

Regarding RDLEAFAERFKQRRRKLGVTQADVGSALANLKIPGVGSLSQSTICRFESLTLSHNNMIALKPILQAWLEEAE, the abundance fitness was -0.298 ± 0.055.

For the variant RDLEAFAERFKQRRWKLGVTQADVGSALANLKIPGVGSLSQSTICRFESLTLSHNNMIALKPILQAWLEEAE, the abundance fitness was -0.461 ± 0.094.

On to RDLEAFAERFKQRRHKLGVTQADVGSALANLKIPGVGSLSQSTICRFESLTLSHNNMIALKPILQAWLEEAE, for which the abundance fitness was -0.451 ± 0.13.

As to RDLEAFAERFKQRRQKLGVTQADVGSALANLKIPGVGSLSQSTICRFESLTLSHNNMIALKPILQAWLEEAE, the abundance fitness was -0.066 ± 0.034.

Turning to RDLEAFAERFKQRRYKLGVTQADVGSALANLKIPGVGSLSQSTICRFESLTLSHNNMIALKPILQAWLEEAE, the abundance fitness is -0.444 ± 0.15.

Consider RDLEAFAERFKQRRCKLGVTQADVGSALANLKIPGVGSLSQSTICRFESLTLSHNNMIALKPILQAWLEEAE, for which the abundance fitness is -0.405 ± 0.12.

As for RDLEAFAERFKQRRGKLGVTQADVGSALANLKIPGVGSLSQSTICRFESLTLSHNNMIALKPILQAWLEEAE, the abundance fitness was -0.515 ± 0.085.

Turning to RDLEAFAERFKQRRTKLGVTQADVGSALANLKIPGVGSLSQSTICRFESLTLSHNNMIALKPILQAWLEEAE, the abundance fitness was found to be 0.026 ± 0.083.

On to RDLEAFAERFKQRRLKLGVTQADVGSALANLKIPGVGSLSQSTICRFESLTLSHNNMIALKPILQAWLEEAE, for which the abundance fitness is -0.101 ± 0.064.

With RDLEAFAERFKQRRKKLGVTQADVGSALANLKIPGVGSLSQSTICRFESLTLSHNNMIALKPILQAWLEEAE, the abundance fitness amounted to 0.015 ± 0.086.

For the variant RDLEAFAERFKQRRAKLGVTQADVGSALANLKIPGVGSLSQSTICRFESLTLSHNNMIALKPILQAWLEEAE, the abundance fitness is -0.237 ± 0.082.

On to RDLEAFAERFKQRRMKLGVTQADVGSALANLKIPGVGSLSQSTICRFESLTLSHNNMIALKPILQAWLEEAE, for which the abundance fitness was determined as 0.113 ± 0.14.

For RDLEAFAERFKQRRSKLGVTQADVGSALANLKIPGVGSLSQSTICRFESLTLSHNNMIALKPILQAWLEEAE, the abundance fitness was -0.262 ± 0.056.
